For 13 substances, logFC.mEQ.over.Luc results are on record in patent publication US20240368668A1, “SUBSTRATES AND BIOMARKERS OF ADAMTS7” (The Broad Institute, Inc., priority 2021, published 2024).

The target of the first test is T1, mouse ADAMTS7 (Mus musculus, UniProt Q68SA9, E373Q).
T1 construct: Full-length mouse Adamts7 1-1857 (Uniprot Q68SA9, WT or E373Q catalytic mutant); expressed in transfected cells; host or cells: Human Coronary Artery Smooth Muscle Cells (HCA-SMC, Lonza), adenovirus 50 MOI
T1 sequence (Q68SA9 221-1657 E373Q): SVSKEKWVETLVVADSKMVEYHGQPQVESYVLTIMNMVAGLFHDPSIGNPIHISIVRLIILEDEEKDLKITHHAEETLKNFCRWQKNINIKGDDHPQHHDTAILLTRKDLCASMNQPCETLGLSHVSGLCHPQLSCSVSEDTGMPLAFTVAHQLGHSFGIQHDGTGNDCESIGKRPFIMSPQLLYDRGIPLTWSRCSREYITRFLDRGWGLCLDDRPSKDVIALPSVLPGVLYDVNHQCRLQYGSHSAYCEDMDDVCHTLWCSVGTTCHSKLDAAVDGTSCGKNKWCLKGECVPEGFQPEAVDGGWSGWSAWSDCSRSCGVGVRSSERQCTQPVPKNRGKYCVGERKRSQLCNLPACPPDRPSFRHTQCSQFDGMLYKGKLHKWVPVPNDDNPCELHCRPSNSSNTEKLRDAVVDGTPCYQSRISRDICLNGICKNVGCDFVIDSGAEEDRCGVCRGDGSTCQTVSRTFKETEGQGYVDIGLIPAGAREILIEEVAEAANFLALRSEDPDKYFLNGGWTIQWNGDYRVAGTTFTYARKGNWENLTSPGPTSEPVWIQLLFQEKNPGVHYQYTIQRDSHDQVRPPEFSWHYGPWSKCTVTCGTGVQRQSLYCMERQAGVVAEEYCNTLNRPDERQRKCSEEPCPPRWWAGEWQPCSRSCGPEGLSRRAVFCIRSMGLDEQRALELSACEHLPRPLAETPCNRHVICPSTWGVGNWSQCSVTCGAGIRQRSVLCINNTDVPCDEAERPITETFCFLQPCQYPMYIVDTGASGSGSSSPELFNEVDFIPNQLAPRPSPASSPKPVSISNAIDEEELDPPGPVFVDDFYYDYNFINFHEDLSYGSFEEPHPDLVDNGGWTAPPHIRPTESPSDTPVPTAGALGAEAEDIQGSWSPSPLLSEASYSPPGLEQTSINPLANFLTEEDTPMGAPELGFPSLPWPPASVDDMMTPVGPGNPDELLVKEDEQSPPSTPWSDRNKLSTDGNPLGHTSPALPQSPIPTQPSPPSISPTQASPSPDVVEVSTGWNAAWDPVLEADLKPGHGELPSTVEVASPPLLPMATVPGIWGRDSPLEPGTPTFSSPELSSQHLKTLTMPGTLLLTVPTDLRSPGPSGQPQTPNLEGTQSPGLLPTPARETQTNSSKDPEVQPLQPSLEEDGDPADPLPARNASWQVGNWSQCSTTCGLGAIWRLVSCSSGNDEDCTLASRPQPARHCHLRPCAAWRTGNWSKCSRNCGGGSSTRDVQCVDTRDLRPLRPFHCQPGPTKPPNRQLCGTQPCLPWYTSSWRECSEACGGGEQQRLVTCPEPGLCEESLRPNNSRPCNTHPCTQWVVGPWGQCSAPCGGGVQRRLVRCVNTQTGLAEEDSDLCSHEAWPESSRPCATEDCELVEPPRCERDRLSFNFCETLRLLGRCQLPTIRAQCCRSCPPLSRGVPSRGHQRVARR
The test can be described thus: TMT10 TAILS N-terminomics, SMC2 experiment (process replicates, trypsin/AspN digest). It is filed as cell-based. Conditions: SMC2_TAILS HC; log fold change of N-terminal peptide, Ad-mADAMTS7 EQ over Luc. A digest of the protocol:
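Full-length mouse ADAMTS7 (WT or E373Q mutant, C-terminal 3xFLAG) or luciferase was transduced via adenovirus, 50 MOI, into HCA-SMC (SMC1, SMC2) or HUVEC. SMC1: pooled media, technical triplicates 400 ug; SMC2: process triplicates 300 ug; HUVEC: process triplicates 200 ug, bFGF2 10 ng/ml.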
Substance “VCAN_3367 (FKNSSSAK; listed as Homo sapiens)” had a logFC.mEQ.over.Luc of −0.72.

“VIM_276 (YESVAAKNLQ; listed as Homo sapiens)” returned a logFC.mEQ.over.Luc of 0.06.

On to “VIM_322 (QVQSLTCEV; listed as Homo sapiens)”, for which the logFC.mEQ.over.Luc was −0.10.

“ZSCAN4_25 (FQQSQGPAVQR; listed as Homo sapiens)” registered a logFC.mEQ.over.Luc of −0.09.

Still in this test, the particulars now being: log fold change, ADAMTS7 EQ over luciferase.
Substance “TGFBI_524 (SAGLTETLNR; listed as Homo sapiens)” returned a logFC.mEQ.over.Luc of 0.18.

“TGFBI_534 (EGVYTVFAPTNEAFR; listed as Homo sapiens)”: the logFC.mEQ.over.Luc was found to be 0.09.

As to “TG_1017 (GASALLR; listed as Homo sapiens)”, the logFC.mEQ.over.Luc is given as 1.03.

“THBS1_972 (QNDPNWVVR; listed as Homo sapiens)” yielded a logFC.mEQ.over.Luc of −0.04.

In the case of “TLN1_1501 (HTSALCNSCR; listed as Homo sapiens)”, the logFC.mEQ.over.Luc is on record as −0.17.

In turn, “TMEM132A_52 (LLDAPEHFR; listed as Homo sapiens)” returned a logFC.mEQ.over.Luc of −0.30.

“VASN_138 (HIQPGAFDTLDR; listed as Homo sapiens)” registered a logFC.mEQ.over.Luc of 0.19.

Regarding “VASP_229 (AIAGAKLR; listed as Homo sapiens)”, the logFC.mEQ.over.Luc was −0.08.

Turning to “VIM_433 (LVDTHSKR; listed as Homo sapiens)”, the logFC.mEQ.over.Luc amounted to 0.12.
